Results: paper PMC10003087, “VRK1 Kinase Activity Modulating Histone H4K16 Acetylation Inhibited by SIRT2 and VRK-IN-1” (International Journal of Molecular Sciences, 2023)

Target: T1, GST-VRK1 (human, UniProt Q99986 1-396)
T1 sequence (looked up): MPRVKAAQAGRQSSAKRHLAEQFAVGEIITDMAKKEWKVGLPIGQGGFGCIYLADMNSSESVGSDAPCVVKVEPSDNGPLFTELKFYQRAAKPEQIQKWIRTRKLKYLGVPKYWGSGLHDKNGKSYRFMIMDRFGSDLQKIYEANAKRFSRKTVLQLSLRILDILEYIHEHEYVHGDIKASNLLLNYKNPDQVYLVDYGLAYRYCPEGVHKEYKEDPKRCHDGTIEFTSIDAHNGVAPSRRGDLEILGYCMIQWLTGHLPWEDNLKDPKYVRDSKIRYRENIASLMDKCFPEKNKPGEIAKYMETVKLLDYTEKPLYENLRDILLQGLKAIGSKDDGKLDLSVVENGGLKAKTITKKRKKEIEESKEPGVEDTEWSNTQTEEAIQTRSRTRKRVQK
Experiment: cell-based or functional assay

B1: SIRT2-his (enzyme, human, UniProt Q8IXJ6 1-389, looked up)
chain: MAEPDPSHPLETQAGKVQEAQDSDSDSEGGAAGGEADMDFLRNLFSQTLSLGSQKERLLDELTLEGVARYMQSERCRRVICLVGAGISTSAGIPDFRSPSTGLYDNLEKYHLPYPEAIFEISYFKKHPEPFFALAKELYPGQFKPTICHYFMRLLKDKGLLLRCYTQNIDTLERIAGLEQEDLVEAHGTFYTSHCVSASCRHEYPLSWMKEKIFSEVTPKCEDCQSLVKPDIVFFGESLPARFFSCMQSDFLKVDLLLVMGTSLQVQPFASLISKAPLSTPRLLINKEKAGQSDPFLGMIMGLGGGMDFDSKKAYRDVAWLGECDQGCLALAELLGWKKELEDLVRREHASIDAQSGAGVPNPSTSASPKKSPPPAKDEARTTEREKPQ
With B1 as the binder, how does the “IC50 of SIRT2 for inhibition of VRK1 autophosphorylation (in vitro kinase assay, dose-dependent)” value read?
Its value is 0.19 µM.

What about the “IC50 of SIRT2 for inhibition of the phosphorylation of histone H3 by VRK1 (in vitro kinase assay, dose-dependent)” value of the same binder?
The value was 0.15 µM.
